Measured values from patent US10456465B2, “Compositions, kits, and methods for the diagnosis prognosis, monitoring, treatment and modulation of post-transplant lymphoproliferative disorders and hypoxia associated angiogenesis disorders using galectin-1” (Dana-Farber Cancer Institute, Inc., priority 2009, dated 2019).
Entries after “also recorded” stand apart in the source; their conditions may differ.

How the values were obtained:
mice (Matrigel plugs) = assay: In vivo vascularization of Matrigel sponges; set-up: species or system mouse; settings: Gal1 0.1 or 3 μM; 6 days; hemoglobin content
Method: Invasion assays were performed using the BioCoat Angiogenesis system (BD Biosciences) following manufacturer's recommendations. For assessment of in vivo angiogenesis, growth factor-reduced Matrigel (BD Biosciences) was mixed with Gal1 (0.1 or 3 μM) with or without lactose (30 mM). In another set of experiments, serum-free CM from KS cells infected or not with a retroviral vector expressing Gal1 shRNA and cultured under hypoxic or normoxic conditions, were added to unpolymerized Matrigel and injected subcutaneously into the flanks of either wild-type or Lgals1^−/− (B6) mice or nude mice using a cold syringe. Matrigel embedded with buffer alone was used as negative control and a cocktail containing VEGF (50 ng/ml), heparin (50 U/ml) and TNF (2 ng/ml) was used as positive control. After 6 days, Matrigel plugs were collected by surgery, photographed and weighed. Samples were minced and diluted in water to measure hemoglobin content using the Drabkin reagent kit (Sigma). Each sample was normalized to 100 mg of recovered gel and confronted with a standard curve of mouse blood hemoglobin.

Gal3 = biological target: T1, Gal3 (Homo sapiens, UniProt P17931); assay: Binding of 488-Gal3 to HUVEC; settings: 488-Gal3 20 μg/ml, mAb 0.5 μM
T1 construct: made in house
T1 sequence (P17931 whole entry, species assumed): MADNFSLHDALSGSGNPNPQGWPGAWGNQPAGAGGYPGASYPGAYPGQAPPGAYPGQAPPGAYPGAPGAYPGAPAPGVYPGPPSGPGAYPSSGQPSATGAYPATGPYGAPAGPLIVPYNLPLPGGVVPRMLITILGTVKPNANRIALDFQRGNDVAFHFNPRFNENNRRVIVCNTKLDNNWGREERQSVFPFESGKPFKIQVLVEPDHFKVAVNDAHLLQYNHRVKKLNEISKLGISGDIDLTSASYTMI
Method: For glycophenotyping, ECs were incubated with biotinylated L-PHA, LEL, SNA, MAL II, PNA and HPA (all from Vector). Recombinant Gal1 was purified as described in Ilarregui et al. (2009) Nat Immunol 10, 981-991. For binding assays, ECs were incubated for 1 h at 4° C. with dyLight 488-labeled galectins in the absence or presence of lactose, sucrose, anti-Gal1 or isotype control mAb or following transfection with GnT5, GCNT1 or scrambled siRNA. Cells were analyzed on a FACSAria (BD Biosciences). For segregation, ECs were treated with Gal1 for 1 h, fixed and incubated for 1 h with anti-human VEGFR2 antibody (55B11; Cell Signaling) as described in Ilarregui et al. (2009) Nat Immunol 10, 981-991. Cells were analyzed on a Nikon laser confocal microscope (Eclipse E800).
DyLight 488-conjugated Gal1 (488-Gal1) was obtained using DyLight labeling kit (Thermo Scientific). Inhibitors of Jak2-STAT3 (AG490; 5 μM), Jnk-SAP (SP600125; 20 μM), p38 (SB202190; 10 μM), HIF-1α (3 μM) and O-glycosylation (benzyl-α-Ga1NAc; 2 mM) were from Calbiochem. Inhibitors of Erk1/2 (U0126; 5 μM), PI(3)K-Akt (Ly294002; 2 μM) and NF-κB (BAY 11-7082; 1 μM), ROS (N-acetyl-cysteine; NAC), N-glycosylation (swainsonine; 3 μM), lactose or sucrose (30 mM) were from Sigma. PNGase F (25 U/μg protein) was from New England Biolabs. […]

rGal1 = rGal1 (Homo sapiens, UniProt P09382); assay: Anti-Gal1 mAb neutralization of rGal1-induced killing of EBV-specific CTLs; assay type: cell-based; settings: rGal1 1.25, 2.5 or 5 μM pre-incubated with mAb; 4 h; 7AAD
rGal1, sequence (P09382 whole entry): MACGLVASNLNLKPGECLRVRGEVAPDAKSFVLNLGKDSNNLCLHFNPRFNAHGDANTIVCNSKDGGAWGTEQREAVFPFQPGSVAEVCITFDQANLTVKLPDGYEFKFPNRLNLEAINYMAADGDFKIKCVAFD
Method: After informed consent, 40-60 ml of peripheral blood from healthy donors was used to generate both EBV-transformed LCLs and EBV-specific CTLs (Straathof et al. (2005) Blood 105:1898-904). In brief, 5×10^6 peripheral blood mononuclear cells (PBMCs) were incubated with concentrated culture supernatant from the marmoset B-lymphoblastoid cell line, B95-8, in the presence of 1 μg/ml cyclosporin A (Sandoz, Vienna, Austria) to establish a LCL. Subsequently, PBMCs (2×10^6 per well of a 24-well plate) were stimulated with irradiated LCLs (at 4,000 rads) at an effector-stimulator (E/S) ratio of 40:1. After 10 days, viable cells were restimulated with irradiated LCLs (at 4:1 E/S ratio). CTLs were expanded by weekly stimulations with autologous irradiated LCLs (at 4:1 E/S ratio) in the presence of recombinant human interleukin-2 (rhIL-2, Proleukin; Chiron Emeryville, Calif.) at concentration of 40 U/ml. After 5 cycles of stimulation, CTLs were tested for EBV specificity and cryopreserved. […]
CTLs were thawed in AIM-V media (Invitrogen) containing 10 U/ml of DNAse I (Roche Applied Science, Indianapolis, Ind.) and rested in culture overnight. […] After 4 hours, the viability of EBV-specific CD8^+ T cells was measured using 7AAD and APC-Cy7-labelled CD8 (BD Biosciences, San Jose, Calif.).

## rGal1: recombinant human galectin-1
Mice (Matrigel plugs)
  vascularization of Matrigel sponges containing recombinant Gal1: rapidly became vascularized

B1: anti-Gal1 monoclonal antibody 8F4F8G7 (antibody, V domains shown)
VH: EVQLQQSVAEFVRPGASVRLSCTASGFNIKNTYIHWVRQRPEQGLEWIGKIDPANGNTKYVPEFQGKATMTADTSSNTVYLHLSSLTSEDTAIYYCVDGYYGWYFAVWGTGTTVTVSS
VL: QAVVTQESALTTSPGETVTLTCRSSTGAVTTSNYANWVQEKPDHLFTGLIGATNNRAPGVPARFSGSLIGDKAVLTITGAQTEDEAIYFCALWYRNHFIFGSGTKVTVL
notes: Murine hybridoma mAb (deposit PTA-10535), lambda light chain; also called 14-19 8F4-F8-G7; clone 8F4.8F.67
Gal3
  effect on binding of Gal3 to the EC surface: did not interfere
rGal1
  rGal1-mediated apoptosis of EBV-specific CD8+ T cells: almost completely abrogated; also recorded: dramatically reduced
